The values below come from the supplement of paper PMC12042874.

± gives the uncertainty stated by the source.

The data set can be described thus: amyloid nucleation score (Sup35N fusion, yeast selection) (log enrichment); library NNK3; higher = more nucleation; inactive = no reads after selection. In short, it runs like this: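 After 24 hours of induction with 100 μM copper sulfate, psi-negative yeast expressing peptides of 20 random codons fused to Sup35N were grown for 7 days at 30°C on medium lacking adenine and uracil. Input and output plasmid inserts were sequenced with Illumina, and sequences with under 100 input reads were discarded. Scores for nucleation are the DiMSum log enrichment of output over input reads, centred on the mode score of non-aggregating sequences.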
Regarding RVMSWMILNKYVKIPYCRHR, the amyloid nucleation score entry was “inactive”.
Next, RVRVNPSVHRRPRYGND: “inactive”.
Next, RVSLLNKGVGLRNIRFHEFL: “inactive”; RVSRADRGRCSSFYNLRVLS: “inactive”; RVSSFMSLTVGRYGKLHRDS: “inactive”.
In the case of RVTFWPFVVSAFRVMYGICK it was “inactive”; in that of RVVCGNTGNVAIKKGLINMC, “inactive”.
In turn, RVWHLYTMV displayed an amyloid nucleation score of -1.11 ± 1.9.
In the case of RVWMIGGYSDLFHWNSVLVS it was “inactive”.
In the case of RWNDKWGVDVRSLIIIFVGS it was “inactive”.
In the case of RWNIS it was 0.28 ± 0.22.
Consider RWNVHCYAMLFDVGLVDARL, for which the amyloid nucleation score entry was “inactive”.
For the substance RWWVNSCMEIM, the amyloid nucleation score entry is “inactive”.
Next, RWYRLSGYKSHRNR: “inactive”; RYDLIVKVVVSGESVSTWCC: “inactive”; RYDWLLGSVWVFLLA: “inactive”.
In the case of RYIYPVDLYIWYNYGILLNR it was 0.777 ± 0.23; in that of RYRLSCWWIRLGGNRLAWY, “inactive”.
In the case of RYRNIYC it was “inactive”.
In the case of RYVGAVWYYTMNIVNYNSFI, the amyloid nucleation score is 1.7 ± 0.06.
Next, RYVQLCADYSHGF: “inactive”; SACNAPSLNSTLIVT: “inactive”.
In the case of SAEVATFFNCKYHSSLSILT it was “inactive”; in that of SAEVF, “inactive”; in that of SAGYGLPPPVEYFNWPFSC, -0.394 ± 1.9.
In turn, SAIYMTVTVLVPFGFEMDNK showed an amyloid nucleation score of 0.178 ± 0.49.
Next, SAKCTKEFYSNASKYFNSYL: “inactive”; SAKFTLLGISL: “inactive”.
Next, SALGSSTSFYNGMRRPFRYH: “inactive”.
On to SAMFTGNLYFDFVDPCYSGW, for which the amyloid nucleation score result is “inactive”.
Next, SAPRAEVSNRIK: “inactive”; SARIPSLWNHWRIW: “inactive”; SARRNSRTFLSLFVFHLFRA: “inactive”.
As to SARVRAVAMFPPPALT, the amyloid nucleation score entry is “inactive”.
Next, SARYDFSYEYGRIKYRELDR: 1.1 ± 0.15; SASCKYGVCLSDLLVSDWHY: “inactive”.
Next, SAYRVKMHKRRKAESVLGFR: “inactive”; SCFTEIEWS: “inactive”; SCGSSH: “inactive”.
In the case of SCHLEVLFISLFD it was “inactive”.
Regarding SCIFNWFGFYNIINVFNLCF, the amyloid nucleation score amounted to 2.5 ± 0.053.
Next, SCILCIFPVRLVFYMM: “inactive”; SCMKDMWFVRVMIGLEKKNS: “inactive”; SCNNDPFTNDNASLVRLGRE: “inactive”.
Next, SCNSRFMI: -0.082 ± 0.66; SCSIIYRPPSIWRYSKRTSL: “inactive”.
For SCVDPVRWLRGASF, the amyloid nucleation score entry is “inactive”.
In the case of SCWLGVVETRHNLYDAQNGS it was “inactive”; in that of SCYFGILQWSQSPYFHCPFT, “inactive”; in that of SDCCGRNHVPEGVLWSQFNY, “inactive”.
Next, SDCGDFRLMVFQKSRRDSWN: “inactive”; SDCSGYLQ: “inactive”.
In the case of SDFDMFSCLGNRNLHCSVSV it was “inactive”; in that of SDFRVTPLLYE, “inactive”.
For SDGNSMLGDFRVRMVCHMLL, the amyloid nucleation score entry is “inactive”.
In the case of SDGSTRQSVRRVATPNVSRY it was “inactive”; in that of SDIIM, “inactive”; in that of SDKPSMLKMIHVMR, “inactive”.
For the substance SDMTYHQWGTVYTLD, the amyloid nucleation score result is “inactive”.
In the case of SDNFLRNSLSQEYVRQTLGQ it was “inactive”.
In the case of SDNRSPSLRLFYRPRFHRLG it was “inactive”; in that of SDQSCGDIMMELFWQM, “inactive”.
For the substance SDRFYHCTFHAVTVRWKQRV, the amyloid nucleation score entry is “inactive”.
Next, SDRYDCRDGSCFNRKVRYSL: “inactive”; SDSFSGPVKEPRYWGSQ: “inactive”.
In the case of SDTRGVF it was “inactive”; in that of SDWFGCVVVTLCLVNHQALS, “inactive”; in that of SDYYMENISFCENMRDILFS, “inactive”.
In the case of SECRTRLWLRESYNFSPDVK it was “inactive”; in that of SECWKAFDLGYDNKLSIPRI, “inactive”; in that of SEGFLAWCLRDLRSGRVAR, “inactive”.
Take SEIRGNRNMTTEAPT: the amyloid nucleation score result is “inactive”.
Next, SELQYISLIYCDNRVCLHAL: “inactive”.
In the case of SEMHRERDTMCKVLPDNDKN it was “inactive”; in that of SENVYPCALKRSKGMLIRMV, “inactive”.
Next, SEPIWYFRGFFCGLGLIWGW: -0.389 ± 0.98.
Substance SEPRWSISDYWTKSVDMVLW came in with an amyloid nucleation score of 1.07 ± 0.2.
In the case of SERYADL it was “inactive”; in that of SESPKMLVHVVSHILRDFSE, “inactive”.
In the case of SESQYRRWYTLAFVYMRHLN it was “inactive”.
For SESSS, the amyloid nucleation score result was “inactive”.
For SESTFYMGRLFKEGPRKHVT, the amyloid nucleation score result was “inactive”.
In the case of SETHLLQGDISVVMVLSAN it was “inactive”; in that of SEVGMVSLRLFWLWWVTKPK, “inactive”; in that of SEVWKWMPDKCVSDGYVFDI, “inactive”.
Next, SFAGVCAMCKTCKRAKGVPA: -0.39 ± 1.9; SFECDRYYFSWDGFMSGLT: “inactive”.
Next, SFFESCF: “inactive”.
Consider SFFGVVGKEFVIVQLAIVSG, for which the amyloid nucleation score entry is “inactive”.
In the case of SFLDNCPRGNRGQVGSEPVS it was “inactive”; in that of SFLGLMSMEELITS, “inactive”.
In the case of SFLHTQSAKDTFVHNAVTYT it was “inactive”; in that of SFLRIDVVWFSAFFGWSPFL, 0.357 ± 0.54; in that of SFLYDSVNANLNSTCCCGYI, -0.913 ± 0.9.
In the case of SFMACRLCGRAVDDIVEYTV it was “inactive”; in that of SFMYVCNLLLSSWSCP, 1.83 ± 0.063.
